Measured values published in patent US20220251170A1 (KOREA INSTITUTE OF SCIENCE AND TECHNOLOGY, published 2022).

Biological target: T1, human CD47 on the surface of HT29 and Raji tumor cells (human, UniProt Q08722 19-323)
T1 construct: whole, on cells; also called cell surface CD47
Test: cell binding assay, flow cytometry, anti-Myc detection (FIG. 15A)
Procedure: Cell binding analysis according to one embodiment of the present invention was carried out by culturing HT29 human colon adenocarcinoma (ATCC), Raji human B cell lymphoma (ATCC) and CT26.CL25 mouse colon cancer cells (ATCC) in RPMI-1640 culture medium supplemented with 10% FBS and 1% antibiotics and the cultures were maintained at 37° C. and 5% CO₂. HT29 and Raji cells were then cultured with the addition of an anti-human CD47 antibody (B6H12.2, Abcam, ab3283) and CT26.CL25 cells were incubated with anti-mouse CD47 antibody (Santa Cruz, sc-12731). For cell binding assays, HT29, Raji and CT26.CL25 cells (1×10⁶) were incubated at 4° C. for 30 minutes with the addition of PBS, exosomes or mSIRPα, respectively. The cells were then incubated with anti-Myc antibodies (1:400, Abcam, ab9106) and detected by the addition of Alexa fluor 488-conjugated secondary antibody (1:800, Jackson ImmunoResearch). The cells were then measured using an Accuri™ C6 flow cytometer (BD Biosciences) and analyzed using FlowJo_V10 software (FlowJo). The binding specificity of SIRPα-exosomes to CD47 was analyzed by block experiments through pre-incubation of cells with anti-human CD47 antibody (1:100, Abcam, ab3283).

T1 sequence (Q08722 19-323): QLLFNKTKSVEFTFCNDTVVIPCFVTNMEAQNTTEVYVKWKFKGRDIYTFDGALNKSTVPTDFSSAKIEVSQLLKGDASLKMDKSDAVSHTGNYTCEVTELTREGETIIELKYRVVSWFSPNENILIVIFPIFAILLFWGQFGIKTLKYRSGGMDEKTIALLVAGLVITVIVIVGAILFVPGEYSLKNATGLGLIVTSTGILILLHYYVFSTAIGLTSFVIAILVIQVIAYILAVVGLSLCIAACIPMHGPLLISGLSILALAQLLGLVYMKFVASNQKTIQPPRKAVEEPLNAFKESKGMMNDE

- binding result: binds
B1: purified recombinant SIRPα-Myc monomer protein (mSIRPα) (receptor)
chain: EEELQIIQPDKSVLVAAGETATLRCTITSLFPVGPIQWFRGAGPGRVLIYNQRQGPFPRVTTVSDTTKRNNMDFSIRIGNITPADAGTYYCIKFRKGSPDDVEFKSGAGTELSVRAKP
notes: Expressed in bacteria from pET-28a (Nde I-SIRPα variant-Myc-Hind III), purified on Ni-NTA; also called monomeric SIRPα protein; recombinant SIRPα protein; not shown: N-terminal histidine tag from pET-28a; C-terminal Myc tag
